Source: patent publication US20240352102A1
Several values for one entry are separate records, joined by “and”; a condition that tells them apart may be missing. Identical values can stand only once. Like-named read-outs stand apart in the source and are kept apart here.

Assays:
Peptide_060 [1] = biological target: T1, Peptide_060; assay: peptide microarray
T1 sequence (peptide): LKHQPGGGKVQIINK

Peptide_060 [2] = biological target: T1, Peptide_060; assay: peptide microarray; remark: listed apart in the source
Peptide_060 [3] = biological target: T1, Peptide_060; assay: peptide microarray; remark: listed apart in the source
Peptide_061 [4] = biological target: T2, Peptide_061; assay: peptide microarray
T2 sequence (peptide): PGGGKVQIINKKLDL

Peptide_051 = biological target: T3, Peptide_051; assay: peptide microarray
T3 sequence (peptide): RTPPKSPSSAKSRLQ

Peptide_061 [5] = biological target: T2, Peptide_061; assay: peptide microarray; remark: listed apart in the source
[6] = biological target: biotinylated a/B tubulin dimers; assay: SPR, biotinylated tubulin dimers as probe on a streptavidin chip, tau in solution

Substance: T14 (antibody)
- fluorescence intensity (Peptide_060 [1]): 1010
- fluorescence intensity (Peptide_060 [2]): 840

Substance: TNT1 (antibody)
- fluorescence intensity (Peptide_060 [3]): 925 and 797

Substance: tau1 (antibody)
- fluorescence intensity (Peptide_060 [1]): 3040 and 1780

Substance: RD4 (antibody)
- fluorescence intensity (Peptide_060 [1]): 722
- fluorescence intensity (Peptide_061 [4]): 10700
- fluorescence intensity (Peptide_051): 163
- fluorescence intensity (Peptide_060 [2]): 738
- fluorescence intensity (Peptide_061 [5]): 21000

Substance: ALZ50 (antibody)
- fluorescence intensity (Peptide_060 [1]): 2600
- fluorescence intensity (Peptide_060 [3]): 3070

Substance: T46 (antibody)
- fluorescence intensity (Peptide_060 [1]): 1650 and 844
- fluorescence intensity (Peptide_061 [4]): 3020

Substance: Recombinant human tau isoform 1N4R (from UniProt P10636 1-412)
- Kd [6]: 39.8 nM

Substance: TNT2 (antibody)
- fluorescence intensity (Peptide_060 [3]): 771 and 1024

Substance: TOC1 (antibody)
- fluorescence intensity (Peptide_060 [1]): 1580 and 1790

Substance: MC1 (antibody)
- fluorescence intensity (Peptide_060 [1]): 770 and 1100
